Experimental data reported in US20200317768A1 (published 2020).

Experiments:
Human latent myostatin [1] = target: T1, Human latent myostatin (human, UniProt O14793 25-266; O14793 267-375); assay: SPR (BIACORE T200), 37 C, pH5.8, avidity condition (capture 185 RU), 1:1 fit; pH 5.8
T1 construct: Biotinylated in the ELISAs; also called human myostatin latent form
T1 sequence 1: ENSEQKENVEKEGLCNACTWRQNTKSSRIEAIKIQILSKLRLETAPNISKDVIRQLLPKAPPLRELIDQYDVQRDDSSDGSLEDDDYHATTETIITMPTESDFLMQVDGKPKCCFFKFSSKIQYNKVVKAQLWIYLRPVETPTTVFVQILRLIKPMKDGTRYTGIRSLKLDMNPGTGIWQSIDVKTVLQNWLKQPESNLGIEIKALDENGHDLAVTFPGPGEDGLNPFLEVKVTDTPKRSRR
T1 sequence 2: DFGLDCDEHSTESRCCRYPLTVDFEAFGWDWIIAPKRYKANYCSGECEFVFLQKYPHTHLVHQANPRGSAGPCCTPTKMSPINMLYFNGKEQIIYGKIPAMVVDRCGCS
Experimental: (§1) The kinetic parameters of anti-latent myostatin antibodies against human, cynomolgus monkey (cyno), and mouse latent myostatin were assessed at 37° C. at pH7.4 using a BIACORE® T200 instrument (GE Healthcare). ProA/G (Pierce) was immobilized onto all flow cells of a CM4 chip using amine coupling kit (GE Healthcare). Anti-latent myostatin antibody and analytes were prepared in ACES pH7.4 (20 mM ACES, 150 mM NaCl, 1.2 mM CaCl₂), 0.05% TWEEN® 20, 0.005% NaN₃). […] Then human, cyno, or mouse latent myostatin was injected at 3.125 to 50 nM prepared by two-fold serial dilution, followed by dissociation. The sensor surface was regenerated with 25 mM NaOH. Kinetic parameters were determined by processing and fitting the data to a 1:1 binding model using BIACORE® T200 Evaluation software, version 2.0 (GE Healthcare).
(§2) All experimental settings were the same as in Example 7, except that measurements were also performed in ACES pH5.8 buffer in addition to ACES pH7.4 condition. Some antibodies were only measured against human latent myostatin. Antibody capture level was aimed at 185 RU and 18.5 RU, for avidity and affinity assay, respectively. Kinetic parameters were determined using 1:1 Binding fitting using BIACORE® T200 Evaluation software, version 2.0 (GE Healthcare).

Human latent myostatin [2] = target: T1, Human latent myostatin; assay: SPR (BIACORE T200), 37 C, pH7.4, 1:1 fit; title prints avidity, by the text the affinity condition (capture 18.5 RU)
Experimental: as §1, §2

Human latent myostatin [3] = target: T1, Human latent myostatin; assay: SPR (BIACORE T200), 37 C, pH7.4, avidity condition (capture 185 RU), 1:1 fit; pH 7.4
Experimental: as §1, §2

Human latent myostatin [4] = target: T2, Human latent myostatin (human, UniProt O14793 25-266; O14793 267-375); assay: SPR 37C; KD pH 5.8 / KD pH 7.4
T2 construct: also called human myostatin latent form
T2 sequence 1: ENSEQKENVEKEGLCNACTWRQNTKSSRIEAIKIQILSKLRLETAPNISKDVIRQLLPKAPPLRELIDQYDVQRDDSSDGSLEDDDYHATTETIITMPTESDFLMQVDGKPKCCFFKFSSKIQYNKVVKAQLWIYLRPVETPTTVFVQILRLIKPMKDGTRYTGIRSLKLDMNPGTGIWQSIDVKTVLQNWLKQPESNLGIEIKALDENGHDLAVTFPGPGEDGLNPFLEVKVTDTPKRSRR
T2 sequence 2: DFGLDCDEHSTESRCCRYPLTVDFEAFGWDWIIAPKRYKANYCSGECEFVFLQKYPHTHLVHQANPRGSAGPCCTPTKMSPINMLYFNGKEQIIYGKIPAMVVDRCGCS
Experimental: (§3) ProA/G (Pierce) was immobilized onto all flow cells of a CM4 chip using an amine coupling kit (GE Healthcare). All antibodies and analytes were prepared in ACES pH7.4 or pH5.8 buffer containing 20 mM ACES, 150 mM NaCl, 1.2 mM CaCl₂, 0.05% TWEEN®) 20, 0.005% NaN₃. […] Human, cyno, and mouse latent myostatin was injected at 3.125 to 50 nM prepared by two-fold serial dilution, followed by dissociation. The sensor surface was regenerated each cycle with 10 mM Glycine HCl pH1.5. Binding affinity was determined by processing and fitting the data to a 1:1 binding model using BIACORE® T200 Evaluation software, version 2.0 (GE Healthcare).

Mouse latent myostatin [5] = target: T3, Mouse latent myostatin (mouse, UniProt O08689 26-267; O08689 268-376); assay: SPR 37C; KD pH 5.8 / KD pH 7.4
T3 construct: Latent form = complex of two propeptides and the mature dimer
T3 sequence 1: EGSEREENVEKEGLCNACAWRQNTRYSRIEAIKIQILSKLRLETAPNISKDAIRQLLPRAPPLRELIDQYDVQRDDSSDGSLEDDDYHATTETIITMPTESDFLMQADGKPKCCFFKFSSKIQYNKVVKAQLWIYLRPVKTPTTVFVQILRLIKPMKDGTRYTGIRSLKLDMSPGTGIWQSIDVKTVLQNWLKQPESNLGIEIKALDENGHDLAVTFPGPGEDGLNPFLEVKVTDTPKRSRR
T3 sequence 2: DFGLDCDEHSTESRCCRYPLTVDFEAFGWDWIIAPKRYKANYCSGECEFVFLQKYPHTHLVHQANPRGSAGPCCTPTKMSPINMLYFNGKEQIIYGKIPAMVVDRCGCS
Experimental: as §3

[6] = target: T4, Cynomolgus monkey latent myostatin (cynomolgus monkey, UniProt Q95J86 25-266; Q95J86 267-375); assay: SPR 37C; KD pH 5.8 / KD pH 7.4
T4 construct: Latent form = complex of two propeptides and the mature dimer; also called Cyno latent myostatin
T4 sequence 1: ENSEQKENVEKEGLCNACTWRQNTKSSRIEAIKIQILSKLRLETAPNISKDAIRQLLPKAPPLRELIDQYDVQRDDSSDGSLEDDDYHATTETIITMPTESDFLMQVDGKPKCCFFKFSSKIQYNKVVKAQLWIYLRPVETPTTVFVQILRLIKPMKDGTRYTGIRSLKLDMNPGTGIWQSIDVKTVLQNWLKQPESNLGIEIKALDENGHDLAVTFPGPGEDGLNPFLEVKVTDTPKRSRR
T4 sequence 2: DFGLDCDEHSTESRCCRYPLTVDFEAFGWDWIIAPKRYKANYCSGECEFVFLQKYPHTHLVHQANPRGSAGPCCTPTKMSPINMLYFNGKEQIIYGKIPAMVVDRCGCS
Experimental: as §3

Human latent myostatin [7] = target: T2, Human latent myostatin; assay: SPR (BIACORE T200) 37C, pH 5.8, antibody captured by ProA/G
Experimental: as §3

Mouse latent myostatin [8] = target: T3, Mouse latent myostatin; assay: as above
Experimental: as §3

[9] = target: T4, Cynomolgus monkey latent myostatin; assay: as above
Experimental: as §3

Human latent myostatin [10] = target: T2, Human latent myostatin; assay: SPR (BIACORE T200) 37C, pH 7.4, antibody captured by ProA/G
Experimental: as §3

Mouse latent myostatin [11] = target: T3, Mouse latent myostatin; assay: as above
Experimental: as §3

[12] = target: T4, Cynomolgus monkey latent myostatin; assay: as above
Experimental: as §3

Binder	Kd (Human latent myostatin [1]) [pM]	koff (Human latent myostatin [1]) [s⁻¹]	kon (Human latent myostatin [1]) [M⁻¹ s⁻¹]	Kd (Human latent myostatin [2]) [pM]	koff (Human latent myostatin [2]) [s⁻¹]	kon (Human latent myostatin [2]) [M⁻¹ s⁻¹]	Kd (Human latent myostatin [3]) [pM]	koff (Human latent myostatin [3]) [s⁻¹]	kon (Human latent myostatin [3]) [M⁻¹ s⁻¹]	ratio of KD at pH 5.8/pH 7.4 (Human latent myostatin [4])	ratio of KD at pH 5.8/pH 7.4 (Mouse latent myostatin [5])	ratio of KD at pH 5.8/pH 7.4 [6]	Kd (Human latent myostatin [7]) [pM]	Kd (Mouse latent myostatin [8]) [pM]	Kd [9] [pM]	Kd (Human latent myostatin [10]) [pM]	Kd (Mouse latent myostatin [11]) [pM]	Kd [12] [pM]
MS_M103205H781-SG1/M103202L719-SK1 (antibody, human IgG1, kappa, V domains shown, also called MS1032LO02-SG1; MSLO-02) VH: QVTLKESGPVLVKPTETLTLTCTVSGIDLSHTDISWVRQAPGKGLEWVGIISYAGSTYYMSWAKGRLTISKDTSKNQVVLTMTNMDPVDTATYYCARGVPAYSHGGDLWGQGTLVTVSS VL: DIVMTQSPATLSLSPGERATLSCQSSQSVYHNNWLSWFQQKPGQPPKLLIYWASTLAFGVPSRFSGSGSGTDFTLTISSLQPEDAATYYCAGGYGGGLYAFGQGTKVEIKR	24300	0.0414	1.7e+06	1640	0.00179	1.09e+06	298	0.000249	836000	–	–	–	–	–	–	–	–	–
MS_M103205H1004-SG1/M103202L889-SK1 (antibody, human IgG1, kappa, V domains shown, also called MS1032LO07-SG1) VH: QVTLKESGPVLVKPTETLTLTCTVSGIDLSHDDISWVRQAPGKGLEWVGIISYAGSMYYASWAKGRLTISKDTSKNQVVLTMTNMDPVDTATYYCARGVPAYSHGGDKWGQGTLVTVSS VL: DIVMTQSPATLSLSPGERATLSCTSSQSVYHANWLSWFQQKPGQPPKLLIYWASTLAYGVPSRFSGSGSGTDFTLTISSLQPEDAATYYCAGGYGGGRYAFGQGTKVEIKR	–	–	–	–	–	–	–	–	–	168	97	102	46200	30800	34700	275	319	339
MS_M103205H1057-SG1/M103202L889-SK1 (antibody, human IgG1, kappa, V domains shown, also called MS1032LO12-SG1) VH: QVTLKESGPVLVKPTETLTLTCTVSGIDLSHTDISWVRQAPGKGLEWVGIISYAGSKYKASWAKGRLTISKDTSKNQVVLTMTNMDPVDTATYYCARGVPAYSHGGDLWGQGTLVTVSS VL: DIVMTQSPATLSLSPGERATLSCTSSQSVYHANWLSWFQQKPGQPPKLLIYWASTLAYGVPSRFSGSGSGTDFTLTISSLQPEDAATYYCAGGYGGGRYAFGQGTKVEIKR	–	–	–	–	–	–	–	–	–	209	60	73	84900	24800	35800	407	413	492
MS_M103205H1047-SG1/M103202L889-SK1 (antibody, human IgG1, kappa, V domains shown, also called MS1032LO11-SG1) VH: QVTLKESGPVLVKPTETLTLTCTVSGIDLSHTDISWVRQAPGKGLEWVGIISYAGKKYYASWAKGRLTISKDTSKNQVVLTMTNMDPVDTATYYCARGVPAYSHGGDLWGQGTLVTVSS VL: DIVMTQSPATLSLSPGERATLSCTSSQSVYHANWLSWFQQKPGQPPKLLIYWASTLAYGVPSRFSGSGSGTDFTLTISSLQPEDAATYYCAGGYGGGRYAFGQGTKVEIKR	–	–	–	–	–	–	–	–	–	341	81	87	143000	29200	43500	419	362	502
MS_M103205H1046-SG1/M103202L889-SK1 (antibody, human IgG1, kappa, V domains shown, also called MS1032LO10-SG1) VH: QVTLKESGPVLVKPTETLTLTCTVSGIDLSHTDISWVRQAPGKGLEWVGIISYAGKTYYASWAKKRLTISKDTSKNQVVLTMTNMDPVDTATYYCARGVPAYSHGGDLWGQGTLVTVSS VL: DIVMTQSPATLSLSPGERATLSCTSSQSVYHANWLSWFQQKPGQPPKLLIYWASTLAYGVPSRFSGSGSGTDFTLTISSLQPEDAATYYCAGGYGGGRYAFGQGTKVEIKR	–	–	–	–	–	–	–	–	–	125	35	38	43800	10900	16100	351	334	419
MS_M103205H781-SG1/M103202L813-SK1 (antibody, human IgG1, kappa, V domains shown, also called MS1032LO03-SG1; MSLO-03) VH: QVTLKESGPVLVKPTETLTLTCTVSGIDLSHTDISWVRQAPGKGLEWVGIISYAGSTYYMSWAKGRLTISKDTSKNQVVLTMTNMDPVDTATYYCARGVPAYSHGGDLWGQGTLVTVSS VL: DIVMTQSPATLSLSPGERATLSCQTSQSVYHDNWLSWFQQKPGQPPKLLIYWASTLASGVPSRFSGSGSGTDFTLTISSLQPEDAATYYCAGGYGGGRYAFGQGTKVEIKR	9660	0.00524	543000	1080	0.00117	1.08e+06	196	0.000192	981000	–	–	–	–	–	–	–	–	–
MS_M103205H1795-SG1/M103202L1060-SK1 (antibody, human IgG1, kappa, V domains shown, also called MS1032LO24-SG1) VH: QVTLKESGPVLVKPTETLTLTCTVSGIDLSHDDISWVRQAPGKGLEWVGIISYAGSTYYASWAKGRLTISKDTSKNQVVLTMTNMDPVDTATYYCARGVPAYSHGGDLWGQGTLVTVSS VL: DIVMTQSPATLSLSPGERATLSCTSSQSVFHENWLSWFQQKPGQPPKLLIYWASTLAWGVPSRFSGSGSGTDFTLTISSLQPEDAATYYCAGGYGGGRYAFGQGTKVEIKR	–	–	–	–	–	–	–	–	–	9	6	5	1520	1020	929	164	176	189
